Reference: article PMC11330416
Several values for one entry are separate records, joined by “and”; a condition that tells them apart may be missing. Equal entries are not always repeated.

How the values were obtained:
[1] = target: SARS-CoV-2 Omicron BA.4/5 spike protein reference material OMIC-1 (SARS-CoV-2 (Omicron BA.4/BA.5) | human) (UniProt P0DTC2); assay: SEC-MALS; Waters BEH SEC 4.6 x 150 mm column (200 A for ACE2-1, 450 A for OMIC-1), DPBS with 0.02% Tween-20, pH 7.4, 0.4 mL/min; UV at 280 nm, MALS and RI detection; relative amounts of species from SEC-UV
[2] = target: biotinylated human angiotensin-converting enzyme 2 reference material ACE2-1 (human) (UniProt Q9BYF1); assay: SPR; ACE2-1 immobilised by its biotin on streptavidin on a biotin-coated Au chip (250-300 RU), blocked with 10 uM BSA; spike analyte in a twofold series of 12.5-200 nM at 50 uL/min, about 90 s association, 30-45 min dissociation; 10 mM HEPES pH 7-7.4, 150 mM NaCl, 3 mM EDTA, 0.05% Tween-20; 1:1 binding model; averages of two independent experiments
Sequence of biotinylated human angiotensin-converting enzyme 2 reference material ACE2-1 (human) (Q9BYF1 20-614): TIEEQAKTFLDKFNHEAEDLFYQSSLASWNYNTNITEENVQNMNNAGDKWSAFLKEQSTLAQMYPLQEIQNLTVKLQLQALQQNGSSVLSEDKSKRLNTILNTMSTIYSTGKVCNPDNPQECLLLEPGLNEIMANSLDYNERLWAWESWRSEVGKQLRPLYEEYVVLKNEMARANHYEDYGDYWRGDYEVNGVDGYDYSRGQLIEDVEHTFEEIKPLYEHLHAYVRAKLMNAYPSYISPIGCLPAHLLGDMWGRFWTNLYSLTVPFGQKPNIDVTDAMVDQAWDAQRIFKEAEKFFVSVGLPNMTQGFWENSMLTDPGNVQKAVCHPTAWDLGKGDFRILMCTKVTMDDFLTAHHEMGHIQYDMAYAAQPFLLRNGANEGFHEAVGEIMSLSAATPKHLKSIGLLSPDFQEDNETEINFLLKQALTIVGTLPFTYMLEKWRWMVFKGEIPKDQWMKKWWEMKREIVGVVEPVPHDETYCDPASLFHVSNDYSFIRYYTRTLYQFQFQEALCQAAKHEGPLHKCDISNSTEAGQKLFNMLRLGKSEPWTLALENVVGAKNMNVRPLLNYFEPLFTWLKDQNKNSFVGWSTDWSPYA

SARS-CoV-2 Omicron BA.4/5 spike protein reference material OMIC-1 (from UniProt P0DTC2 14-1213)
percent in higher molecular weight oligomers (SEC-UV) [1]: 14% | percent in the trimeric form (SEC-UV) [1]: 82% | stoichiometry N [1]: 3 and 6 | Kd [2]: 4.4 nM
